Experiment: yeast display, Sf9 membrane polyspecificity reagent, FACS + sequencing; frameworks hold sequencing errors
Summary of the method: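 A nanobody's polyreactivity label depends on the gate it was sorted from. Yeast display cells were stained with 10% biotinylated, detergent-solubilized Sf9 membrane reagent for 1 hour at 4 °C, enriched on streptavidin microbeads and sorted by FACS. The low and high (top ~1%) gates were set on anti-HA fluorescence for expression and streptavidin fluorescence for reagent binding.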

Row | Sequence | polyreactivity (PSR sort gate)
1 | QVQLVESGGGLVQAGGSLRLSCAASGSTFVQNAMGWYRQAPGKERELVAAISLRGGSTYYADSVKGRFTISRDNAKNTVYLQMNSLKPEDTAVYYCAADVSQRDGSVRGYDSWGQDTQVTVSS | high polyreactivity
2 | QVQLVESGGGLVQAGGSLRLSCAASGLIYFYYDMGWYRQAPGKERELVAAISQRGGSTYYADSVKGRFTISRDNAKNTVYLQMNSLKPEDTAVYYCNAYSQRYGYYYWGQGTQVTVSS | high polyreactivity
3 | QVQLVESGGGLVQAGGSLRLSCAASGTIFYDNDMGLYRQAPGKERELVAAISWSASDTYYADSVKGRFTISRDNAKNTVFLQMMSLKPEDTAVYYCNAEVYEWYVVYSALDYWGQVTQVTVSS | low polyreactivity
4 | QVQLVESGGGLVQAGGSLRLSCAASGRIFALYAMGWYRQAPGKERELVATITRSGTNTYYADSVKGRFTISRDNAKNTVYLQMNRLKPEDTAVYYCAAYRFWQRTMGYWGQGTQVTVSS | high polyreactivity
5 | QVQVVETGGGLVQAGGSLRLSCAPSGITFVTYAMGWYRQAPGKERELVAAISRSGGRTYYADSVNVRFTISRDNAKNTVYLQMNSLKPEDTAVYYCAAERKNKYDYWGQGTQVTVSS | high polyreactivity
6 | PVQLVESGGGLVQAGGSLRLSCAASGSTSSYYAMGWYRQAPGKERELVAAIRTSGRTYYADSVKGRFTISRDNAKNTVYLQMNSLQPEDTAVYYCNAGYVSPDYDSWGQGTHVTVSS | high polyreactivity
7 | QVQLVESGGGLVQAGGSLRLSCAASGSTFVFYAMGWYRQAPGKERELVAAITISGDITYYADSVKGRFTISRDNAKNTVYLQMNSLKPEDTAVYYCAADWHSWRWGYYYWGQGTQVTVSS | low polyreactivity
8 | QVQLVESGGGLVQAGGSLRLSCAASGFTFISNAMGWYRQAPGKERELVAAISSSGGRTYYADSVKGRFTISRDNAKNTVYLQMNRLKPEDTAVYYCNAVRSLLYSRKIEYDYWGQGTQVTVSS | low polyreactivity
9 | QVQLVESGGGLFQAGGSLRLSCAASGNIFVDYDMGWYRQAPGKERELDATITGTGDSTTYADSVKGRFTISRDIAKNTVYLQMNSLKPEDTAVYYCNTDLRLVYRTKGFISWGYDYWGQGTQVTVSS | low polyreactivity
10 | QVQLVESGGVLVQAGGSLRLSCAASGSIFDKAMGWSRQAPGKERELVSAITSGGITNYADSVKGRFTISRDNAKNTVYLQMNRLKPEDCAVYYCNTLSPTQTKYDYWGQGTQVSVSS | low polyreactivity
11 | QVHLVESGGGLVQAGGSLRLSCAASGSTFAANAMGWYRQAPGKERELVAAITSSGGSTYYADSVKGRFTISRDNAKNTVYLQMNSLKPEDTAVYYCKKDIERYFRIYDSWGQGTQVTVSS | low polyreactivity
12 | QVQLVESGGRIVQAGGSLRLSCAASGRIFWLNAMGRYRQAPGKEREFVASITYGSDSTYYADSVKGRFTISRDTATNTVYFQMNSLKPEDTAVYYCNREGWHYGPYGYWGQGTQVTVSS | low polyreactivity
13 | QVQLQESGGGLVQAGGSLRLSCAASGNISVTGFMGWYRQAPGKERELVASIGIGGTTYYADSVKGRFSISRDNGKNTVYLQLNSLKPEDSAVYYCAARYLYYAYSYWGQGTQVTVSS | low polyreactivity
14 | QVQLVESGGGLVQAGGSLRLTCAASGYTFRRYAMGWYRQAPGKERELVAAITRDDSTNYADSVKGRFTISRDNGKNTVYLQMNSLKPEDTAVYYCAAAVGLRRYSPLHLLYYYWGQGTQVTVSS | high polyreactivity
15 | QVQLVESGGGLVQAGGSLRLSCAASGRISAFNSMGWYRQAPGKERELVAAINVSGGNTYYADSVKGRFTISRDNAKNTFFLQMNSLKPEDTAVYYCAAERRRWGLDYYYWGQGTQVTVSS | high polyreactivity
16 | QVQLVESGGGLVQAGGSLRLSCAASGSIFTYYAMGWYRQAPGKERELVAAISASGGSTYYADSVKGRFTISRDNAKNTVYLQMNSLKPEDTAVYYCAADYRRSGGGNLPYDNDYWGQVTQVTVSS | high polyreactivity
17 | QVQLVESGGGLVQAGGRLRLSCAASGNTFGPYDMGWYRQAPGKERELVAGITSGGSTYYADSVKGRFTISRDNAKITVYLQMNSLKPEDTAVYYCAADYFLWVYWYDYWGQGTQVTVSS | high polyreactivity
18 | QVQLVESGGGIVQAGGSLRLSCAASGRIFYGYTMGWYRQAPGKERELVASIDYSTGRTYYADSVKGRFTISRDNAKNTVYLLMNSLKPEDTAVYYCNADPNYSFLRYDYWGQGTQVTVSS | high polyreactivity
19 | QVQLVESGGGLVQAGGILRLSCAASGSIFAYYAMGWYRQAPGKERELVAAIDSGGGTSYADSVKGRFTISRDNAKNTVYLQMNRLKPEDTAVYYCNAAGYVVYYRIIAFGYWGQGTQVTVSS | low polyreactivity
20 | QVQLVESGGGLVQAGGSHRLSCAASGSTFEYYAMGWYRQAPGKERELVAAITTSGGITYYADSVKGRFTISRDNAKNTVYLQMNSLKPEDTAVYYCNADAVPFPTLVTYLYDYWGQGTQVTVSS | low polyreactivity
21 | QVQLVESGGGLVQAGGSLRLTCAGSGRIFPFYAMGWYRHAPGKERELVAAISWNGGSTFYADSVKGRFTISRDNAKNTVYLQMNSLKPEDTAVYYCNADFRPAYTYDYWGQGTQVTVSS | low polyreactivity
22 | QVQLLESGGGLVQAGGSLRLTCAASGLTFSNYAMGWYRQAPGKERELVADIRSGGNTNYADSVKGRFTISRDNAKNTVYLQMNSLKPEDTAVYYCATDGYRIDVYHPDYRYDYWGQGTQVTVSS | low polyreactivity

Row | Sequence | polyreactivity (PSR sort gate)
23 | QVQLVESGGGFVQARGSLRLSCAASGSIFWLYAMGWYSQAPGKERELVAAISWSTGGTYYADSVKGRFTISRDNAKNTVYLQMNSQKPEDTAVYYCNKLWVGKFKRYEFGYWGQGTQVTVSS | low polyreactivity
24 | QVQLVESGGGLVQAGGRLRLSCAASGSIFNSYDMGWYRQAPGKERELVAAINSGGSTYYADSVKGRFTISRDNAKNTDYFQMNSLKPEDTAVYYCAARVVIRYPYTKGYYYWGQGTQVTVSS | high polyreactivity
25 | QVQLEESGGGLVHAGGSLRLSCAASGFTFYSYAMGWYRQAPGKERELVAAITQSGGSTYYADSVKGRFTISRDNAKNTVYFQMNSLKPEDTAVYYCAAGRRSSWRYYLWYDYWGQGTQVTVSS | low polyreactivity
26 | QVQLVESGGGLVQAGGSLRLSCAASGFTFARYAMGWYRQAPGKERELVAAISSRGGRTYYADSVKGRFTISRDNAKNTVYLQMNSLKPEDTAVYYCNAGYAHTYDYWGQGTQVTVSS | high polyreactivity
27 | QVQLVESGGGLVQAGGSLRLSCAASGSIFWSNAMGWYRQAPGKERELVAAITWSGGSTYADSVKGRFTISRDNAKNTVYLQMNSLKPEDTAVYYCAAERAILSSDKQSLWRFDYWGQGTQVTVSS | low polyreactivity
28 | QVQLVESGGGLVQAGGSLRLSCAASGITFYEYAMGCYRQAPGTERDFVAAIDHGDSSTYYADSVKGRFTISRDNAKNTVYLQMNSLKPEDTAVYYCNADPYYDYSLNWGDYWGQGTQVTVSS | low polyreactivity
29 | QVQLVESGGGLVQAGGSLRLSCAASGSTFVGNAMGWYRQAPGKERELVAAITGGGGSTYYADSVKGRFTISRDNAKNTVYLQMNSLKPEDTAVYYCNKKLQRRSWYDYWGQGTQVTVSS | low polyreactivity
30 | QVQLVETGGGLVQAGGSLRLSCAASGRTFAYNAMGWYRQAPGKARELVAAITGSGGRTYYADSVKGRFTISRDNAKNTVYLQMNSLKPEETAVYYCAAEGPEIKYYYWGQGTQVTVSL | low polyreactivity
31 | QVQLVESGGGLVQAGGSLRLSCAASGSIFDRNAMGWYRQAPGKERELVSAISRGGRTYYADSVKGRFTISRDNAKNTVYLQMNSLKPEDTAVYDCAAGYPSAWAYTTDDYWGQGTQVTVSS | low polyreactivity
32 | QVQLVESGGGLVQAGGSLRLSCAASGSTFASYAMGWDRQAPGKERELVAAITDSGGSTYYADSVKGRFTISRDNAKNTVYLQMNSLKPEDTAVYYCAAYGPYFSYHDYDYWGQGTQVTVSS | low polyreactivity
33 | QVQLVESGGGLVQAGGSLRLSCVASGLTQPSAIGWYRHAPGKERELVPRISWRGASTYYADSVKGRFTISRDTAKNNFYLQINSLKPEDTAVYYCAARSTIQRRGYYGYRVGRSEYGYWGQGTQVTVSS | low polyreactivity
34 | QVQLVESGGGLVQAGGSLRLSCAASGLTFPKYAMGWYRQAPGKERELVAAITQRGGSTYYADSVKGRFTISRDNAKNTVYLQMNSLNPEDTAVYYSNARRRDYNNRREFDYWGQGTQVTVSS | high polyreactivity
35 | QVQLVESGGGLDQAGGSLRLSCAASGRIFSFNAMGWYRQAPGKERELVAAISWSTGSTFYADSVKGRFTISRDNAKNTVYLQMNSLKPEDTAVYYCAREYYYRRGFFLRGYWGQGTQVTVSS | high polyreactivity
36 | QVQLVESGGGLVQAGGSLRLSCAATGSTSGKNAMGWYRQAPAKERELFAAIRNSGGTTYYADSVKGRFTISRDNAKNTVYLQMNSLKPEDTAVYYCATRYYLNFLDGYNYWGQGTQVTVSS | high polyreactivity
37 | QGQLVESGGGLVQAGGSLRLSCAASVRTSVINAMGWYRQAPGKERELVAAITKRGGSTYYADSVKGRFTISRDIAKNTVYLQMNSLKPEDTEVYYCAKYPIYIQYDSWGQGTQVTVSS | high polyreactivity
38 | QVQLVESGGGLVQAGGSLRLSCAASGRIFRPYAMGWYRQAPGKERELVATITGSGGTTYYADSVKGRFTISRDNAKNSVYFQMNSLKPEDTAVYYCNVDPRSDIIPMDYWGQGTQVTVSS | low polyreactivity
39 | QVQLVESGGGLVQAGGSLRLSCAASGSIFFTNTMGWYRKAPGKERELVAAITSGGSTNYADSVKGRFTISRDNAKNTVYLQMNSLKPEDTAVYYCAARYQPWLKYDFDSWGQGTQVTVSS | low polyreactivity
40 | QVQLVESGGGLVQAGGSLRLSCAASGSIFVTYAMGWYRQAPGKERELVAAISTSGGSTYADSVKGRFTISRDNAKNTVYLQMNSLKPEDTAVYYCNADDPGYAVPWYWFKYDYWGQGTQVTGSS | low polyreactivity
41 | QVQLVESGGGLVQAGGSLRLSCAASGITFYGYAMGWYIQAPGKERELVASITSTGSTNYADSVKGRFTISRDNAKNTVYLQMNSLKPEDTAVYYCAARYREVYRSKRKLGYWGQGTQVTVSS | high polyreactivity
42 | QVQLVESGGGLVQAGGSLRLSCAASGSTFSLNDMGWYRQAPGKERQLVAAITGRGTRTYYADSVKGRFTISRDNAKNNVYLQMNSLKPEDTAVYYCAIDYPRGSPYGYNYWVQGTQVTVSS | high polyreactivity
43 | QVQLVESGGGLVQAGGSLRLSCAASGITSTYYAMGWYRQAPGKERELVAAISVSGGSTYYADSVKGRFTISRDNAKNTVYLQMNSLKPEDTAVYYCTADSYHTYYYWYDYWGQGTQVTVSS | low polyreactivity

Source: the nanobody polyreactivity screen of Harvey et al. (2022)
